This series has as its system MS2 coat protein. As to the kind of experiment: apparent KD of MS2 coat protein; designed switch direction (-1 OFF switch, 1 ON switch): -1; higher = weaker reporter binding. In short, it runs like this: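 Stalled E. coli RNA polymerase transcribed designed RNA switches on Illumina chips, which were then titrated with SNAP-549-labelled MS2 coat protein, doubling from 0.7 or 1.5 nM to 3 µM. Steps lasted from 0.8–1.5 h at the lowest concentration to 10–20 min at the highest. The apparent KD is each design's median over clusters of curve-fitted normalised fluorescence.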

[1] abbreviates: Eterna round: R95, input ligand: FMN 200 uM.
[2] abbreviates: Eterna round: R95, input ligand: microRNA oligo, concentration not stated.
The mark [3] stands for this setting: Eterna round: R95, input ligand: none.
[4] abbreviates: input ligand: microRNA oligo, concentration not stated.

As for “AGUAACCGUCACGAAAGUGAUGGUUACGCAAGCAAUUGUACAUGAGGAUCACCCAUGUCCUCAUUUGCUCGUCUUAU [Sensor 3 - 42] (puzzle: Sensor v3, turn-off variant 2)”, the “apparent KD of MS2 coat protein” value runs as follows: under setting [1], 313 nM; under setting [2], 378 nM; under setting [3], 357 nM.

Consider “AGUAACCGUCACGAAAGUGAUGGUUACGCAAGUAAAUGUACAUGAGGAUCACCCAUGUCCUCAUUUGCUCGUCUUAU [Sensor 3 - 44] (puzzle: Sensor v3, turn-off variant 2)”, for which the “apparent KD of MS2 coat protein” value is, setting by setting: under setting [1], 188 nM; under setting [2], 330 nM.

For the sequence “AGUAACUAUCACGAAAGUGAUAGUUACAACAAGUGAUAAACAUGAGGAUCACCCAUGUCCUCAUUUGCUCGUUUUAU [Sensor 3 - 15] (puzzle: Sensor v3, turn-off variant 2)”, the “apparent KD of MS2 coat protein” value is, setting by setting: under setting [1], 328 nM; under setting [2], 646 nM; under setting [3], 323 nM.

Regarding “AGUAACUCAAGAGGAUAUCACAUGAGGAUCACCCAUGUAUAGCGCGCUACGCUAGUCCUCGUAUUUGAGAAGGUUUGAUAAAUG [Quve] (Eterna round: R96, puzzle: Exclusion NG 2)”, the “apparent KD of MS2 coat protein” value came out at 10.4 nM (input ligand: FMN 200 uM), 11.4 nM under setting [4] and 14.3 nM (input ligand: none).

Turning to “AGUAAGCUAGGAUAUGCUUUGGGAAAGCAAUCCUUCGAUAAACUUGAGGAUCACCCAAGUAGAAGGAGCUUACU [jl-ex2.4.50 ViennaUCT mod] (Eterna round: R97, puzzle: Exclusion 2)”, the “apparent KD of MS2 coat protein” value worked out at 99.8 nM (input ligand: FMN 200 uM) and 25.4 nM (input ligand: none).

Take “AGUACUAACACGAAAGUGUUAGUACAAUAAGCUUGUGAUACAUGAGGAUCACCCAUGUCCUCAUAAGCUCGUCUUAU [salish99_TOv2_r3_045] (Eterna round: R96, puzzle: Sensor v3, turn-off variant 2)”: the “apparent KD of MS2 coat protein” value worked out at 23.7 nM (input ligand: FMN 200 uM), 714 nM under setting [4] and 24.2 nM (input ligand: none).

On to “AGUACUAACACGAAAGUGUUAGUACAAUAAGCUUGUGAUACAUGAGGAUCACCCAUGUCCUCAUAAGCUCGUCUUAU [salish99_TOv2_r3_045] (puzzle: Sensor v3, turn-off variant 2)”, for which the “apparent KD of MS2 coat protein” value under setting [1] amounted to 24.7 nM, the “apparent KD of MS2 coat protein” value under setting [2] amounted to 652 nM and the “apparent KD of MS2 coat protein” value under setting [3] was 21.9 nM.

For “AGUACUAACACGAAAGUGUUAGUACUAUAAGCUUGUGUUACAUGAGGAUCACCCAUGUCCUCAUAAGCUCGUCUUAA [Mat - Sensor v3 - Turn-off var 2 - D63] (puzzle: Sensor v3, turn-off variant 2)”, the “apparent KD of MS2 coat protein” value was 35.2 nM under setting [1], 437 nM under setting [2] and 41 nM under setting [3].

For the sequence “AGUACUAACACGAGAGUGUUAGUACUAUAAGCUUGUGAAACAUGAGGAUCACCCAUGUCCUCAUAAGCUCGUCUUAU [Mat - Sensor v3 - Turn-off var 2 - D103] (Eterna round: R96, puzzle: Sensor v3, turn-off variant 2)”, the “apparent KD of MS2 coat protein” value turned out to be 13.8 nM (input ligand: FMN 200 uM), 452 nM under setting [4] and 16.8 nM (input ligand: none).

For the sequence “AGUACUAACACGAGAGUGUUAGUACUAUAAGCUUGUGAAACAUGAGGAUCACCCAUGUCCUCAUAAGCUCGUCUUAU [Mat - Sensor v3 - Turn-off var 2 - D103] (puzzle: Sensor v3, turn-off variant 2)”, the “apparent KD of MS2 coat protein” value by setting is: under setting [1], 15.3 nM; under setting [2], 682 nM; under setting [3], 12.5 nM.

In the case of “AGUACUAACAGCUGACUGUUAGUACUGUAGGUUUGUGUUACAUGAGGAUCACCCAUGUCCUCAUAGGCUCGUCUUGU [Mat - Sensor v3 - Turn-off var 2 - D97] (puzzle: Sensor v3, turn-off variant 2)”, the “apparent KD of MS2 coat protein” value runs as follows: under setting [1], 291 nM; under setting [2], 100 nM; under setting [3], 284 nM.

On to “AGUACUAUCACGAAAGUGAUAGUACAAAUAGCAAGUGAAACAUGAGGAUCACCCAUGUCCUCAUUUGCUCGUCUUAA [Mat - Sensor v2 -ver2- JL mod - D66] (Eterna round: R96, puzzle: Sensor v2, turn-off variant 2)”, for which the “apparent KD of MS2 coat protein” value reads like this: (input ligand: FMN 200 uM) 12.6 nM; under setting [4], 320 nM; (input ligand: none) 14.3 nM.

For the sequence “AGUACUAUGCGUGCUGACAUGCGUAGUGCAGCAGGUGUAACAUGAGGAUCACCCAUGUCCUCAUUUGCUCGUCUUAU [Mat - Sensor v3 - Turn-off var 2 - D12] (puzzle: Sensor v3, turn-off variant 2)”, the “apparent KD of MS2 coat protein” value amounted to 116 nM under setting [1], 201 nM under setting [2] and 127 nM under setting [3].

As for “AGUACUUACUCGAUAGUGUUAGUACAAUAAGCUUGUGAAACAUGAGGAUCACCCAUGUCCUCAUAAGCUCGUCUUAU [salish99_TOv2_r3_1005] (puzzle: Sensor v3, turn-off variant 2)”, the “apparent KD of MS2 coat protein” value under setting [1] worked out at 17.6 nM, the “apparent KD of MS2 coat protein” value under setting [2] was found to be 627 nM and the “apparent KD of MS2 coat protein” value under setting [3] came to 15.8 nM.

Turning to “AGUAGAUCUACGCUUGCGUGGAUCUGCUAUGCAGGUGUCACAUGAGGAUCACCCAUGUCCUCAUUUGUUCGUCUUAU [JL turnoff v2 99.16] (puzzle: Sensor v3, turn-off variant 2)”, the “apparent KD of MS2 coat protein” value by setting is: under setting [1], 18.7 nM; under setting [2], 33.8 nM; under setting [3], 15.5 nM.

For the sequence “AGUAGGAGAGGAUAUACGAAGUCAAAAGACUUCAAUACUCAACAUGAGGAUCACCCAUGUAGAAGGCUCCUACA [Omei Ex2 BD A4] (Eterna round: R97, puzzle: Exclusion 2)”, the “apparent KD of MS2 coat protein” value reads like this: (input ligand: FMN 200 uM) 22.9 nM; (input ligand: none) 19.4 nM.

As to “AGUAGGUCUACCUUGGUGGAUCUGCAUUUAAGCAGGUGUACAUGAGGAUCACCCAUGUCCUCAUUUGCUCGUCUUAU [JL turnoff v2 99.30] (puzzle: Sensor v3, turn-off variant 2)”, the “apparent KD of MS2 coat protein” value under setting [1] came to 453 nM, the “apparent KD of MS2 coat protein” value under setting [2] was 342 nM and the “apparent KD of MS2 coat protein” value under setting [3] was 492 nM.

Take “AGUCCAGAUGUUAGGAUAUGCAACUAGCCAUUGUAGCAGAAGGAACAUGAGGAUCACCCAUGUACAAAGACCCG [Edgeraer] (puzzle: Brourd's mod of Exclusion 4)”: the “apparent KD of MS2 coat protein” value worked out at 47.4 nM under setting [1], 13.4 nM under setting [2] and 11.3 nM under setting [3].

Consider “AGUCGAAAGAACCACAUGGACAUGAGGAUCACCCAUGUGCAAGCCUUUUUCUCGUCACUAUCGUCAAAAGACGAUAG [Omei Mir Offv1 A5] (Eterna round: R97, puzzle: Sensor, turn-off variant 1)”, for which the “apparent KD of MS2 coat protein” value (input ligand: FMN 200 uM) worked out at 168 nM and the “apparent KD of MS2 coat protein” value (input ligand: none) was 227 nM.

Consider “AGUCGUAGACAGGAUAUGCGGCUAAUAAAUAAAGCAGAAGGGUCUACUUGAGGAUCACCCAAGUGGGCGGUCUG [jl-ex6-4.22 ViennaUCT mod] (Eterna round: R97, puzzle: Exclusion 6)”, for which the “apparent KD of MS2 coat protein” value is, setting by setting: (input ligand: FMN 200 uM) 64.9 nM; (input ligand: none) 16.9 nM.

Regarding “AGUGAACAUGAGGAUCACCCAUGUUAGGAUAUGUAUAAUCGACGAGCCUUUUCGUCGGGCAGAAGGGAUGGUGA [Eternabot (L2) Solution 95] (Eterna round: R97, puzzle: Exclusion 1)”, the “apparent KD of MS2 coat protein” value (input ligand: FMN 200 uM) turned out to be 44.7 nM and the “apparent KD of MS2 coat protein” value (input ligand: none) is 41.6 nM.

Turning to “AGUGCGUAUGUGAGGAUAUGCUGGUCCUUGGAUCGGCAGAAGGCACAUGAGGAUCACCCAUGUGGUGUCGUACC [salish99_Bmod_ex4_076] (puzzle: Brourd's mod of Exclusion 4)”, the “apparent KD of MS2 coat protein” value under setting [2] was 136 nM.

Consider “AGUGUCUUAGGAUAUACAUGAGGAUCACCCAUGUUAACAUUCCUUCGCGGUAUCGCAUGUAGAAGGAGGAUAUG [Eternabot (L1) Solution 68] (Eterna round: R97, puzzle: Exclusion 3)”, for which the “apparent KD of MS2 coat protein” value (input ligand: FMN 200 uM) was found to be 33.1 nM and the “apparent KD of MS2 coat protein” value (input ligand: none) is 26.8 nM.

Regarding “AGUGUGAGGCAGGAUAUGCUAUAUGUAAGUAAUGCAGAAGGGUCUACAUGAGGAUCACCCAUGUGUGCGGUUGA [Ex6 #9] (Eterna round: R97, puzzle: Exclusion 6)”, the “apparent KD of MS2 coat protein” value (input ligand: FMN 200 uM) amounted to 797 nM and the “apparent KD of MS2 coat protein” value (input ligand: none) was found to be 116 nM.

As to “AGUGUGUGGCAGGAUAUUCUAAUCGUGAGUAGGGAAGAAGGGUCUACAUGAGGAUCACCCAUGUAAGCGGUUGA [Ex6 #43] (Eterna round: R97, puzzle: Exclusion 6)”, the “apparent KD of MS2 coat protein” value by setting is: (input ligand: FMN 200 uM) 257 nM; (input ligand: none) 209 nM.

Regarding “AGUGUGUGGCAGGAUAUUCUAAUCUUUAGGAGGGAAGAAGGGUCUACAUGAGGAUCACCCAUGUAAGCGGUUGA [Ex6 #40] (Eterna round: R97, puzzle: Exclusion 6)”, the “apparent KD of MS2 coat protein” value reads like this: (input ligand: FMN 200 uM) 221 nM; (input ligand: none) 75.3 nM.

With “AGUGUGUGGCAGGAUAUUCUGUUGGUUCGGACAGAAGAAGGGUCUACAUGAGGAUCACCCAUGUAAGCGGUUGA [Ex6 #34] (Eterna round: R97, puzzle: Exclusion 6)”, the “apparent KD of MS2 coat protein” value reads like this: (input ligand: FMN 200 uM) 173 nM; (input ligand: none) 264 nM.

Regarding “AGUUCAAGGAAUUCUUCUGACAUGAGGAUCACCCAUGUGCUUUGCAAGUGUUGCUCGUCGCCUAGAACGUUAAGUAA [Eternabot (Original) Solution 32] (Eterna round: R97, puzzle: Sensor, turn-off variant 1)”, the “apparent KD of MS2 coat protein” value by setting is: (input ligand: FMN 200 uM) 158 nM; (input ligand: none) 225 nM.

As for “AGUUGUUGCGCAGGAUAUGAGGAUCACCCAUAGUAGGAUAUCGAAAGGGAAGGACUGAGGAUUACCCAGAAGGGCGUGAUGACA [pwkr exNG2 2xF5 2xFMN.7] (Eterna round: R96, puzzle: Exclusion NG 2)”, the “apparent KD of MS2 coat protein” value stood at 1530 nM (input ligand: FMN 200 uM), 292 nM under setting [4] and 302 nM (input ligand: none).

The values are drawn from the supplement of paper PMC9170038.
